One may read the Kd as the free concentration of one partner at which half of the binding sites on the other are occupied at equilibrium, for simple one-to-one binding.

We go through 2 molecules from patent publication US20200016266A1 (INIS BIOTECH, published 2020).

Like-named read-outs stand apart in the source and are kept apart here.

The target in assay [1] is T1, QPGSVAEVCITFD
T1 construct: 13-mer of the Gal1 peptide array, axis label
T1 peptide: QPGSVAEVCITFD
Nature of the assay: PEPperMAP conformational epitope mapping peptide array, fluorescence intensity [a.u.].

The target in assay [2] is T2, PGECLRV.
T2 construct: 7-mer of the Gal1 peptide array, axis label
T2 peptide: PGECLRV
The assay is described as above.

For assay [3], the target named is T3, VAPDAKS.
T3 construct: 7-mer of the Gal1 peptide array, axis label
T3 peptide: VAPDAKS
The assay is described as above.

Assay [4] has as its target T4, LPDGYEFKFPNRL
T4 construct: 13-mer of the Gal1 peptide array, axis label
T4 peptide: LPDGYEFKFPNRL
The description is as above.

The target of assay [5] is T5, NLGKDSN.
T5 construct: 7-mer of the Gal1 peptide array, axis label
T5 peptide: NLGKDSN
The assay is described as above.

Assay [6] has as its target T6, TFDQANLTVKLPD
T6 construct: 13-mer of the Gal1 peptide array, axis label
T6 peptide: TFDQANLTVKLPD
Described as above.

The target in assay [7] is T7, GLVASNL.
T7 construct: 7-mer of the Gal1 peptide array, axis label
T7 peptide: GLVASNL
The description is as above.

The target in assay [8] is T8, Galectin-1 (human recombinant Gal1) (human, UniProt P09382 2-135, DyLight 594 label in the FRET assay only).
T8 construct: Recombinant Gal1 made in-house; also called rhGal1; 594-Gal1
The experiment in a line: SPR, BIAEvaluation 3.0, 1:1 kinetic model. On the procedure: By using the BIAEvaluation 3.0 software in a kinetics model of interaction adjustment 1:1, kinetic parameters, constants of dissociation (Kd) and affinity (Ka) were calculated.

Assay [9] deals with T1, QPGSVAEVCITFD
The experiment in a line: PEPperMAP conformational epitope mapping peptide array, fluorescence intensity [a.u.].

Assay [10] has as its target T2, PGECLRV. Described as above.
In assay [11] the target is T3, VAPDAKS. The description is as above.
Assay [12] concerns the target T4, LPDGYEFKFPNRL
Described as above.

Assay [13] deals with T5, NLGKDSN. Described as above.
Assay [14] addresses T6, TFDQANLTVKLPD
The assay is described as above.

Assay [15] addresses T7, GLVASNL. The description is as above.

T8 sequence (P09382 2-135 limits assumed): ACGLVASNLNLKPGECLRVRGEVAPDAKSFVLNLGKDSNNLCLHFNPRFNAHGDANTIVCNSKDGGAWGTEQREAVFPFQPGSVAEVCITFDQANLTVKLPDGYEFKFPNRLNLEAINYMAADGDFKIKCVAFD

B1: anti-Gal1 Clone 21, fully human monoclonal antibody (antibody, V domains shown)
VH: EVQLLESGGGLVQPGGSLRLSCAASGFTFSSYAMSWVRQAPGKGLEWVSEIGRVGVNTLYADSVKGRFTISRDNSKNTLYLQMNSLRAEDTAVYYCAKKATQFDYWGQGTLVTVSS
VL: DIQMTQSPSSLSASVGDRVTITCRASQSISSYLNWYQQKPGKAPKLLIYRASRLQSGVPSRFSGSGSGTDFTLTISSLQPEDFATYYCQQTIGPPDTFGQGTKVEIKR
notes: also called MAb21; Human Ab 21
On to B1, for which the binding result in the assay with QPGSVAEVCITFD [1], with PGECLRV [2], with VAPDAKS [3], in the assay with LPDGYEFKFPNRL [4], with NLGKDSN [5] and with TFDQANLTVKLPD [6] was “no binding (tested: 10 µg/ml)” each time. In addition, the binding result in the assay with GLVASNL [7] was “no binding (tested: 10 µg/ml)”. Also, the Ka in assay [8] was found to be 649000 M⁻¹. In assay [8], the Kd stood at 1540 nM.

B2: anti-Gal1 Clone 42, fully human monoclonal antibody (antibody, V domains shown)
VH: EVQLLESGGGLVQPGGSLRLSCAASGFTFSSYAMSWVRQAPGKGLEWVSGISGSGDYTSYADSVKGRFTISRDNSKNTLYLQMNSLRAEDTAVYYCAKGYGAFDYWGQGTLVTVSS
VL: DIQMTQSPSSLSASVGDRVTITCRASQSISSYLNWYQQKPGKAPKLLIYGASWLQSGVPSRFSGSGSGTDFTLTISSLQPEDFATYYCQQSANYPSTFGQGTKVEIKR
notes: also called MAb42; Human Ab 42
Regarding B2, the binding result in the assay with QPGSVAEVCITFD [9], in the assay with PGECLRV [10], in the assay with VAPDAKS [11], with LPDGYEFKFPNRL [12], with NLGKDSN [13] and with TFDQANLTVKLPD [14] was “no binding (tested: 10 µg/ml)” each time. In the assay with GLVASNL [15], the binding result is given as “no binding (tested: 10 µg/ml)”. In addition, in [8], the Ka came to 7.63e+06 M⁻¹. Besides, the Kd in assay [8] came to 131 nM.
